Reference: paper doi:10.1101/2024.09.19.614015 (bioRxiv, 2024)

Columns and labels:
crystal structure = molecular target: the molecule itself; test: crystal structure
[1] = molecular target: Staphylococcus aureus O-acetyl-L-serine sulfhydrylase (CysK) (S. aureus) (UniProt P63871); test: SPR

B1: Staphylococcus aureus O-acetyl-L-serine sulfhydrylase (CysK) (enzyme, S. aureus, UniProt P63871 1-310, looked up)
chain: MAQKPVDNITQIIGGTPVVKLRNVVDDNAADVYVKLEYQNPGGSVKDRIALAMIEKAEREGKIKPGDTIVEPTSGNTGIGLAFVCAAKGYKAVFTMPETMSQERRNLLKAYGAELVLTPGSEAMKGAIKKAKELKEEHGYFEPQQFENPANPEVHELTTGPELLQQFEGKTIDAFLAGVGTGGTLSGVGKVLKKEYPNIEIVAIEPEASPVLSGGEPGPHKLQGLGAGFIPGTLNTEIYDSIIKVGNDTAMEMSRRVAKEEGILAGISSGAAIYAAIQKAKELGKGKTVVTVLPSNGERYLSTPLYSFDD
modifications: PLP cofactor in a Schiff base linkage with the ε-amino group of K46
Q: B1 was tested. Which “stoichiometry N” value (crystal structure) did it give?
A: The value was 2.

Q: With MFYI [CymR 4] as the binder, how does the Kd [1] read?
A: Its Kd is 4.1 µM.
